Experimental data published in paper PMC12127727, “Double the Double: Revisiting BCL11B's Multimerization” (Proteins, 2025).

Experiments:
[1] = molecular target: the molecule itself; assay: SEC; analytical size exclusion chromatography of the purified recombinant constructs; stoichiometric factors calculated from elution volumes with a calibration curve (Figure S1); rough estimate of molecular weights
[2] = molecular target: the molecule itself; assay: cross-linking; constructs incubated with BS(PEG)5 (bis-succinimide ester-activated PEG, 21.7 Å), then reducing 16% tricine SDS-PAGE of crosslinked and control samples

Row | Protein | stoichiometry N [1] | stoichiometry N [2]
1 | BCL11B_(42–220) WT (domain or fragment, human, UniProt Q9C0K0 42-220, looked up, BCL11B, human, residues 42-220: ZF0 extended up until the first C2H2 zinc finger domain (ZF1); source: E. coli, recombinantly expressed, purified) SGLGLMVGGPDPDLLTCGQCQMNFPLGDILVFIEHKRKQCGGSLGACYDKALDKDSPPPSSRSELRKVSEPVEIGIQVTPDEDDHLLSPTKGICPKQENIAGPCRPAQLPAVAPIAASSHPHSSVITSPLRALGALPPCLPLPCCSARPVSGDGTQGEGQTEAPFGCQCQLSGKDEPSS | 16.6 | 
2 | BCL11B_(42–94) WT (N-terminal wild-type zinc finger domain, ZF0) (domain or fragment, human, UniProt Q9C0K0 42-94, looked up, B Cell Lymphoma/Leukemia 11B (BCL11B), human, residues 42-94, atypical CCHC zinc finger domain ZF0; source: E. coli, recombinantly expressed, purified) SGLGLMVGGPDPDLLTCGQCQMNFPLGDILVFIEHKRKQCGGSLGACYDKALD | 7 | 4
3 | BCL11B_(42–94) I70A (domain or fragment, human, UniProt Q9C0K0 42-94, looked up, BCL11B, human, residues 42-94 (ZF0) with I70A; CD spectra indicate an incomplete zinc finger fold; source: E. coli, recombinantly expressed, purified) SGLGLMVGGPDPDLLTCGQCQMNFPLGDALVFIEHKRKQCGGSLGACYDKALD |  | 2
4 | BCL11B_(42–94) K77A (domain or fragment, human, UniProt Q9C0K0 42-94, looked up, BCL11B, human, residues 42-94 (ZF0) with K77A; also called lysine mutant K77A; source: E. coli, recombinantly expressed, purified) SGLGLMVGGPDPDLLTCGQCQMNFPLGDILVFIEHARKQCGGSLGACYDKALD |  | 2
5 | BCL11B_(42–94) C81H (domain or fragment, human, UniProt Q9C0K0 42-94, looked up, BCL11B, human, residues 42-94 (ZF0) with C81H, which turns the CCHC zinc finger into a C2H2 zinc finger; also called zinc finger mutant C81H; source: E. coli, recombinantly expressed, purified) SGLGLMVGGPDPDLLTCGQCQMNFPLGDILVFIEHKRKQHGGSLGACYDKALD |  | 4
6 | BCL11B_(42–94) L71A/V72A (domain or fragment, human, UniProt Q9C0K0 42-94, looked up, BCL11B, human, residues 42-94 (ZF0) with L71A and V72A; also called double mutant L71A/V72A; source: E. coli, recombinantly expressed, purified) SGLGLMVGGPDPDLLTCGQCQMNFPLGDIAAFIEHKRKQCGGSLGACYDKALD |  | 4
7 | BCL11B_(42–94) I74A (domain or fragment, human, UniProt Q9C0K0 42-94, looked up, BCL11B, human, residues 42-94 (ZF0) with I74A; CD spectra indicate an incomplete zinc finger fold; source: E. coli, recombinantly expressed, purified) SGLGLMVGGPDPDLLTCGQCQMNFPLGDILVFAEHKRKQCGGSLGACYDKALD |  | 2
8 | BCL11B_(42–426) WT (domain or fragment, human, UniProt Q9C0K0 42-426, looked up, source: E. coli, recombinantly expressed, purified) SGLGLMVGGPDPDLLTCGQCQMNFPLGDILVFIEHKRKQCGGSLGACYDKALDKDSPPPSSRSELRKVSEPVEIGIQVTPDEDDHLLSPTKGICPKQENIAGPCRPAQLPAVAPIAASSHPHSSVITSPLRALGALPPCLPLPCCSARPVSGDGTQGEGQTEAPFGCQCQLSGKDEPSSYICTTCKQPFNSAWFLLQHAQNTHGFRIYLEPGPASSSLTPRLTIPPPLGPEAVAQSPLMNFLGDSNPFNLLRMTGPILRDHPGFGEGRLPGTPPLFSPPPRHHLDPHRLSAEEMGLVAQHPSAFDRVMRLNPMAIDSPAMDFSRRLRELAGNSSTPPPVSPGRGNPMHRLLNPFQPSPKSPFLSTPPLPPMPPGGTPPPQPPAKS | 4 | 
